{"source": "patent US20080119432", "about": "“Inhibition Of Metallo-Beta-Lactamase By Rna” (published 2008)", "key": {"[1]": {"target": "T1, metallo-beta-lactamase (beta-lactamase II, 5/B/6) (Bacillus cereus 5/B/6, UniProt P14488 SEQ:2-228)", "T1 sequence": "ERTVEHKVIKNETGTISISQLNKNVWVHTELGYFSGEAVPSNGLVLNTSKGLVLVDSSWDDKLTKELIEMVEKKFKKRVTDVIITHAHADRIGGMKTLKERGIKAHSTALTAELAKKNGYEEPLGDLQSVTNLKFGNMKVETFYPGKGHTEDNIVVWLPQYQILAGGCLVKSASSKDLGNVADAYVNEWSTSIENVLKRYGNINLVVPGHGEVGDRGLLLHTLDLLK", "assay": "inhibition; 4.3 mM cephalosporin C, 50 mM MOPS pH 7.0, no added Zn", "details": "tags: expressed in E. coli TAP56 from pRE2/bla"}, "[2]": {"target": "T1, metallo-beta-lactamase (beta-lactamase …)", "assay": "inhibition; noncompetitive; Ki' (enzyme-substrate-inhibitor complex) 15 nM; cephalosporin C substrate, 50 mM MOPS pH 7.0, 30 C", "details": "tags: expressed in E. coli TAP56 from pRE2/bla"}}, "data": [{"binder": "UGGCUGCAGGGUCUGGCCCCCCGUUUGGUG (ssRNA)", "note": "[30-mer RNA]", "values": [{"measurement": "IC50", "setting": "[1]", "value": 11, "unit": "nM"}, {"measurement": "Ki", "setting": "[2]", "value": 2, "unit": "nM"}]}]}
